B1: HDV Ribozyme (parent)
chain: GGCCGGCAUGGUCCCAGCCUCCUCGCUGGCGCCGGCUGGGCAACAUUCCGAGGGGACCGUCCCCUCGGUAAUGGCGAAUGGGACCCA

The values below come from the RNAGym collection of RNA variant scans (doi:10.7554/elife.80360).

The data set covers variants of B1. As to the kind of experiment: self-cleavage, relative activity (ratio to wild type); higher = more cleavage; co-transcriptional.
As to GGCCGGCAUGGUCCCAGCCUCCUCGCUGGCGCCGGCUCGGCAACAUUCCGAGUGGACCGUCCCCUCGGUAAUGGCGAAUGGGACCCA [G38C G53U], the self-cleavage came out at 0.266.

On to GGCCGGCAUGGUCCCAGCCUCCUCGCUGGCGCCGGCUCGGCAACAUUCCGAGGGGACCGUCCCCUCGGUAAUGUCGAAUGGGACCCA [G38C G74U], for which the self-cleavage is 0.0739. Next, GGCCGGCAUGGUCCCAGCCUCCUCGCUGGCGCCGGCUCGGCAACAUUCCGAGGGGACCGUCCCCUCGGAAAUGGCGAAUGGGACCCA [G38C U69A]: 0.095; GGCCGGCAUGGUCCCAGCCUCCUCGCUGGCGCCGGCUCGGCAACAUUCCGAGGGGACCGUCCCCUCGGGAAUGGCGAAUGGGACCCA [G38C U69G]: 0.356. Then GGCCGGCAUGGUCCCAGCCUCCUCGCUGGCGCCGGCUCGGCAACAUUCCGAGGGGACCGUCCCCUUGGUAAUGGCGAAUGGGACCCA [G38C C66U], with 0.153; and GGCCGGCAUGGUCCCAGCCUCCUCGCUGGCGCCGGCUUGGCAACAUUCCGAGGGGACCGUCCCCUCGGUAAUGGCGAAUGGGCCCCA [G38U A83C], with 0.0773. Regarding GGCCGGCAUGGUCCCAGCCUCCUCGCUGGCGCCGGCUUGGCAACAUUCCGAGGGGACCGUCCCCUCGGUAAUGGCGAAUGGGUCCCA [G38U A83U], the self-cleavage is 0.0959. Then GGCCGGCAUGGUCCCAGCCUCCUCGCUGGCGCCGGCUCGGCAACAUUCCGAGGGGACCGUCCCCUCGGUAAUGGCGAAGGGGACCCA [G38C U79G], with 0; and GGCCGGCAUGGUCCCAGCCUCCUCGCUGGCGCCGGCUCGGCAACAUUCCGAGGGGACCGUCCCCUCGGUAAUGGCGAAAGGGACCCA [G38C U79A], with 0.151; and GGCCGGCAUGGUCCCAGCCUCCUCGCUGGCGCCGGCUCGGCAACAUUCCGAGGGGACCGUCCCCACGGUAAUGGCGAAUGGGACCCA [G38C U65A], with 0.341. Then GGCCGGCAUGGUCCCAGCCUCCUCGCUGGCGCCGGCUCGGCAACAUUCCGAGGAGACCGUCCCCUCGGUAAUGGCGAAUGGGACCCA [G38C G54A], with 0.132. Then GGCCGGCAUGGUCCCAGCCUCCUCGCUGGCGCCGGCUCGGCAACAUUCCGAGGCGACCGUCCCCUCGGUAAUGGCGAAUGGGACCCA [G38C G54C], with 0.237; and GGCCGGCAUGGUCCCAGCCUCCUCGCUGGCGCCGGCUCGGCAACAUUCCGAGGGGACCGUCCCCUCGGUAAUGGCGAAUUGGACCCA [G38C G80U], with 0.0314; and GGCCGGCAUGGUCCCAGCCUCCUCGCUGGCGCCGGCUCGGCAACAUUCCGAGGGGACCGUCCCCUCGGUAAUGGCGAAUCGGACCCA [G38C G80C], with 0.145. As for GGCCGGCAUGGUCCCAGCCUCCUCGCUGGCGCCGGCUCGGCAACAUUCCGAGGGGACCGUCCCCUCGGUAAUGGCGAAUAGGACCCA [G38C G80A], the self-cleavage was found to be 0.131. On to GGCCGGCAUGGUCCCAGCCUCCUCGCUGGCGCCGGCUCGGCAACAUUCCGAGGGGACCGUCCCGUCGGUAAUGGCGAAUGGGACCCA [G38C C64G], for which the self-cleavage was 0.415.

With GGCCGGCAUGGUCCCAGCCUCCUCGCUGGCGCCGGCUCGGCAACAUUCCGAGGGGACCGGCCCCUCGGUAAUGGCGAAUGGGACCCA [G38C U60G], the self-cleavage worked out at 0.113. Next, GGCCGGCAUGGUCCCAGCCUCCUCGCUGGCGCCGGCUCGGCAACAUUCCGAGGGGACCGUCCCCUCGAUAAUGGCGAAUGGGACCCA [G38C G68A]: 0.172; GGCCGGCAUGGUCCCAGCCUCCUCGCUGGCGCCGGCUCGGCAACAUUCCGAGGGGACCGUCCCCUCGCUAAUGGCGAAUGGGACCCA [G38C G68C]: 0.193. Then GGCCGGCAUGGUCCCAGCCUCCUCGCUGGCGCCGGCUCGGCAACAUUCCGAGGGGACCGUCCCCUCGUUAAUGGCGAAUGGGACCCA [G38C G68U], with 0.272; and GGCCGGCAUGGUCCCAGCCUCCUCGCUGGCGCCGGCUCGGCAACAUUCCGAGGGGACCGUCCCCUCGGUAAUGGCGAAUGGGACGCA [G38C C85G], with 0.237; and GGCCGGCAUGGUCCCAGCCUCCUCGCUGGCGCCGGCUCGGCAACAUUCCGAGGGGACCGUCCCCUCGGUAAUGGCGAAUGGGACACA [G38C C85A], with 0.0997. Then GGCCGGCAUGGUCCCAGCCUCCUCGCUGGCGCCGGCUCGGCAACAUUCCGAGGGGACCGUCCCCUCGGUAAUGGCUAAUGGGACCCA [G38C G76U], with 0.47. Turning to GGCCGGCAUGGUCCCAGCCUCCUCGCUGGCGCCGGCUCGGCAACAUUCCGAGGGGACCGUCCCCUCGGUAAUGGCAAAUGGGACCCA [G38C G76A], the self-cleavage was found to be 0.205.

For GGCCGGCAUGGUCCCAGCCUCCUCGCUGGCGCCGGCUCGGCAACAUUCCGAGGGGACCGUCCCCUCGGUAAUGGCCAAUGGGACCCA [G38C G76C], the self-cleavage was 0.122. For GGCCGGCAUGGUCCCAGCCUCCUCGCUGGCGCCGGCUUGGCAACAUUCCGAGGGGACCGUCCCCUCGGUAAUGGCGGAUGGGACCCA [G38U A77G], the self-cleavage stood at 0.0923. Take GGCCGGCAUGGUCCCAGCCUCCUCGCUGGCGCCGGCUUGGCAUCAUUCCGAGGGGACCGUCCCCUCGGUAAUGGCGAAUGGGACCCA [G38U A43U]: the self-cleavage came to 0.0963. Take GGCCGGCAUGGUCCCAGCCUCCUCGCUGGCGCCGGCUCGGCAACAUUCCGAGGGGACCGUCCCCUCGGUAAAGGCGAAUGGGACCCA [G38C U72A]: the self-cleavage is 0.158. Next, GGCCGGCAUGGUCCCAGCCUCCUCGCUGGCGCCGGCUCGGCAACAUUCCGAGGGGACCGUCCCCUCGGUAAGGGCGAAUGGGACCCA [G38C U72G]: 0; GGCCGGCAUGGUCCCAGCCUCCUCGCUGGCGCCGGCUCGGCAACAUUCCGAGGGGACCGUCCCCUCGGUAAUGGCGAAUGGAACCCA [G38C G82A]: 0.0594; GGCCGGCAUGGUCCCAGCCUCCUCGCUGGCGCCGGCUCGCCAACAUUCCGAGGGGACCGUCCCCUCGGUAAUGGCGAAUGGGACCCA [G38C G40C]: 0.0405.

Consider GGCCGGCAUGGUCCCAGCCUCCUCGCUGGCGCCGGCUCGACAACAUUCCGAGGGGACCGUCCCCUCGGUAAUGGCGAAUGGGACCCA [G38C G40A], for which the self-cleavage is 0.0978.
